Laboratory results published in KR20220013311A (dated 2022).

Legend:
[1] = biological target: T1, SARS-CoV-2 바이러스 표면 단백질 (RBD) (SARS-CoV-2, UniProt P0DTC2 319-541); assay: BLI (Octet), full IgG against RBD
[2] = biological target: T1, SARS-CoV-2 바이러스 표면 단백질 (RBD); assay: BLI (Octet), full IgG against SARS-CoV-2 RBD
[3] = biological target: T1, SARS-CoV-2 바이러스 표면 단백질 (RBD); assay: BLI (Octet), full IgG against RBD; printed as kdis

B1: No. 32 항체 (Full IgG) (antibody, V domains shown)
VH: EVQLVQSGGGLIQPGGSLRLSCAASEFIVSSNYMTWVRQAPGKGLEWVSIIYPGGSTYYADSVKGRFTISRDNSKNTLYLRMNSLRAEDTAVYYCARDLPLTGTTLDYWGQGTLVTVSS
VL: not shown
Kd [1]: 0.305 nM | kon [1]: 633000 M⁻¹ s⁻¹ | Kd [2]: 0.147 nM | koff [3]: 0.000193 s⁻¹
